Assay results: paper PMC4172209 (2014)
Where no end group is shown, it is not given here. The star is where a group is joined. FITC = O=C1OC2(c3ccc(O)cc3Oc3cc(O)ccc32)c2ccc(NC(=S)*)cc21; βAla = NCCC(=O)O

T1: PTH1R C-terminal peptide (FITC-PTH1Rct) (Homo sapiens)
T1 chain: {FITC-βAla}-PERPPALLQEEWETVM

B1: NHERF1 PDZ1 1-140 (protein)
chain: MSADAAAGAPLPRLCCLEKGPNGYGFHLHGEKGKLGQYIRLVEPGSPAEKAGLLAGDRLVEVNGENVEKETHQQVVSRIRAALNAVRLLVVDPETDEQLQKLGVQVREELLRAQEAPGQAEPPAAAEVQGAGNENEPREA

Assays:
[1] = biological target: NHERF1 PDZ1 (Homo sapiens) (UniProt O14745); conditions: cited from earlier work
[2] = biological target: T1, PTH1R C-terminal peptide (FITC-PTH1Rct); test: fluorescence polarization

Molecule	Kd [1]	Kd [2]
PTH1R C-terminal peptide C-terminus (from UniProt Q03431)	11 µM	–
B1	–	19 µM
